One data set concerns PatE2/PatE2K. The data set can be described thus: C-terminal cleavage and macrocyclization of heterocyclized, N-terminally cleaved PatE2/PatE2K. The data set is classed as biochemical. The settings on record: 100 μM substrate, 20 μM PatGmac, 24 hours at 37° C., 20 mM Bicine pH 8.1, 500 mM NaCl, 5% DMSO. As to the method:
The final stage in patellamide production is C-terminal cleavage and macrocyclization. This step is catalyzed by the PatGmac domain. In order to macrocyclize our single cassette we incubated 100 μM heterocyclized (with either PatD or TruD) and N-terminally cleaved PatE2/PatE2K with 20 μM PatGmac for 24 hours at 37° C. in 20 mM Bicine pH 8.1, 500 mM NaCl, 5% DMSO to complete the reaction. Completeness of the reaction was confirmed by LCT-ESI MS (FIG. 16). […] PatGmac is also highly expressed in E. coli with between 200 and 250 mg purified protein obtained per liter of culture. The final macrocycles were purified by HPLC on a C18 peptide column. PatD and TruD heterocyclised macrocycles were subjected to HRMS and their structures confirmed by fragmentation (see FIGS. 19 to 21; Table 3). NMR analysis was carried out on TruD and PatD heterocyclised macrocycles, as shown in FIGS. 20 and 21) (Tables 7 and 8).

In data set [1] the test system is […]. The data set can be described thus: Macrocyclization of substrate with modified recognition sequence (Asp to Arg). The data set is classed as biochemical. The protocol:
(§1) For other macrocyclization reactions, 100 μM peptide (e.g. VGAGIGFPAYDG (SEQ ID NO: 68), VGAGIGFPAYRG (SEQ ID NO: 69), or GVAGIGFPAYRG (SEQ ID NO: 84)) was incubated with 20 μM enzyme in a range of buffers for 24 h at 37° C. (see FIGS. 1 to 3).
PatGmac K598D produced cyclo[VGAGIGFP] with only 8% linear product, at a rate over an order of magnitude faster than wild-type PatGmac with VGAGIGFPAYDG (SEQ ID NO: 68) (FIGS. 2 and 3).

Data set [2] has as its system […]. The data set can be described thus: Macrocyclization reaction rate in different buffers (LC-MS). The data set is classed as biochemical. The protocol: as §1
PatGmac is a slow enzyme; turnover rates reported to date are ˜1 per day (Lee, J., McIntosh, J., Hathaway, B. J. & Schmidt, E. W., 2009; McIntosh, J. A. et al., 2010). […] Adding DMSO gave a small increase in rate but shifted the optimum pH, thus a buffer containing 500 mM NaCl and 5% DMSO at pH 8 gave a reaction rate over 50 times greater (FIG. 1C). Under these conditions, about 7% linearized VGAGIGFP (SEQ ID NO: 70) byproduct was observed which can be separated from cyclo[VGAGIGFP] (SEQ ID NO: 70) by HPLC.

Data set [3] concerns […]. The settings on record: rates reported to date; cited from earlier work.
In data set [4] the test system is […]. Put plainly: Macrocyclization reaction, final product ratios by LC-ESI MS ion counts. The data set is classed as biochemical. As to the method: For macrocyclization reactions comparing final product ratios after substrate depletion, 100 μM peptide (VGAGIGFPAYDG) (SEQ ID NO: 68) was incubated with 50 μM enzyme in 150 mM NaCl, 10 mM HEPES pH 8, 1 mM TCEP for 120 h at 37° C. Samples were analyzed by ESI or MALDI MS (LCT, Micromass or 4800 MALDI TOF/TOF Analyser, ABSciex).
LC-MS was performed using a Phenomenex Sunfire C18 column (4.6 mm×150 mm). Solvent A was H2O containing 0.1% formic acid and solvent B was MeOH containing 0.1% formic acid. Gradient: 0-2 min 10% B; 2-22 min 10% B to 100% B; 22-27 min 100% B; 27-30 min 100% B to 10% B. High resolution mass spectral data were obtained from a Thermo Instruments MS system (LTQ XL/LTQ Orbitrap Discovery) coupled to a Thermo Instruments HPLC system (Accela PDA detector, Accela PDA autosampler and Accela Pump). The following conditions were used: capillary voltage 45 V, capillary temperature 320° C., auxiliary gas flow rate 10-20 arbitrary units, sheath gas flow rate 40-50 arbitrary units, spray voltage 4.5 kV, mass range 100-2000 amu (maximum resolution 30000).
The peptide VGAGIGFPAYDG (SEQ ID NO: 68) was used as a substrate for PatGmac in biochemical assays (FIG. 4C[[c]]). The ratio of macrocyclized to linear product using this substrate peptide was determined by ion counts obtained from liquid chromatography-electrospray ionization mass spectrometry (LC-ESI MS).

[5] abbreviates: 500 mM NaCl and 5% DMSO at pH 8.
Where [6] appears, read: 100 μM peptide, 50 μM enzyme, 120 h at 37° C.

B1: PatGmac: macrocyclase domain of PatG, residues 492-851 (protein)
chain: GEDEIESAGVSASEVESSATKQKVALHPHDLDERIPGLADLHNQTLGDPQITIVIIDGDPDYTLSCFEGAEVSKVFPYWHEPAEPITPEDYAAFQSIRDQGLKGKEKEEALEAVIPDTKDRIVLNDHACHVTSTIVGQEHSPVFGIAPNCRVINMPQDAVIRGNYDDVMSPLNLARAIDLALELGANIIHCAFCRPTQTSEGEEILVQAIKKCQDNNVLIVSPTGNNSNESWCLPAVLPGTLAVGAAKVDGTPCHFSNWGGNNTKEGILAPGEEILGAQPCTEEPVRLTGTSMAAPVMTGISALLMSLQVQQGKPVDAEAVRTALLKTAIPCDPEVVEEPERCLRGFVNIPGAMKVLFGQ
For B1, in the data set with PatE2/PatE2K, the “macrocyclized (ion count analysis)” value is 100%. In data set […] [1], the “ratio of macrocyclized and linear products with VGAGIGFPAYRG” value was “equal amounts of macrocyclized and linear products”; the “reaction rate with VGAGIGFPAYRG” value is “reacted extremely slowly”. In data set […] [2] (setting [5]), the “linearized VGAGIGFP byproduct” value was “about 7%” and the reaction rate increase entry is listed as “over 50 times”. In addition, the “rate change on increasing sodium chloride” value in data set […] [2] (NaCl from 150 mM to 500 mM) is “greater than an order of magnitude improvement in rate”. Moreover, the “rate change on increasing pH” value in data set […] [2] (pH from 8 to 9, 500 mM NaCl) was “further tripled the rate”. Moreover, the turnover rate in data set […] [3] was around 1 per day. Also, the “product formed (macrocyclized vs linear)” value in data set […] [4] is given as “only macrocyclized product”. Moreover, in data set […] [4] (setting [6]), the “Cyclic ion count (%) (M + H = 699)” value is recorded as 100%, the “Linear ion count (%) (M + H = 717)” value worked out at 0% and the “Unprocessed ion count (%) (M + H = 1123)” value turned out to be 0%.
